# Source: patent US9074002B2, “PTP1B inhibitors” (Cold Spring Harbor Laboratory, priority 2009, dated 2015)
# T1: PTP1B under reducing condition (Homo sapiens, UniProt P18031)
# T1 construct: made in house; host or cells: E. coli BL21 (pET19b)
# T1 sequence (P18031 3-277 limits assumed): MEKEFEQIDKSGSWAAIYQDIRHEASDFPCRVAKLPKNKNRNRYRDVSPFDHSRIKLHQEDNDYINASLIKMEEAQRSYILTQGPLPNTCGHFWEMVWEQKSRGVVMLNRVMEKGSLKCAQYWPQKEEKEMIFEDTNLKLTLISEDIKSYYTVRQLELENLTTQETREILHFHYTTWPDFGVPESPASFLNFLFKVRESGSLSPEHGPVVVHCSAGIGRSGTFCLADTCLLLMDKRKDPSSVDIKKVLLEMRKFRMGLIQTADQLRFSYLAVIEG
# B1: scFv45: conformation-sensor scFv binding PTP1B-OX, SEQ ID NO: 26 and 78; expressed as intrabody (protein)
# scFv: MKKTAIAIAVALAGFATVAQAALTQPSSVSANPGGTVKITCSGSSSAYGYGWYQQKSPGSAPVTVIYNNNKRPSNIPSRFSGSKSGSTGTLTITGVQAEDEAVYFCGSEDSSTDAIFGAGTTLTVLGQSSRSSTVTLDESGGGLQAPGGALSLVCKASGFTFSSYDMGWIRQAPGKGLEYVAGITDNGRYASYGSAVDGRATISRDNGQSSVRLQLNNLRAEDTGTYYCARDDGSGWTGNSIDAWGHGTEVIVSSTSGQAGQHHHHHHGAYPYDVPDYAS
# B2: scFv57: scFv binding PTP1B-OX, SEQ ID NO: 27 and 90 (protein)
# scFv: MKKTAIAIAVALAGFATVAQAALTQPSSVSANPGAFNKITCSGSSSAYGYGWNQQKSPGSAPVTVIYNNNKRPSNIPSRFSGSKSGSTGTLTITGDQDEDEDFYFCGSEYSSTDAIFGAGTTLTVLGQSSRSSTVTLDESGGGLQAPGGALSLVCKASGFTFSSYDMGWIPQAPGKGLEYVAGITDNGIYASYGSAVDGRATISRDNRQSSVKLQLNNLKADDTGTYYCARDDGSGWTGNSIDAWGHGTEVIVSSTSGQAGQHHHHHHGAYPYDVPDYAS
# Tests used:
# [1] = molecular target: T1, PTP1B under reducing condition; test: In vitro binding assay, purified recombinant PTP1B (37 kDa) and purified scFv, Ni-NTA pull down, reducing condition; conditions: with 2 mM TCEP; FIG. 9
# Method: They established conditions in which PTP1B is reversibly oxidized by H2O2 in solution (FIG. 8). An artificial protein substrate RCML, in which tyrosine was phosphorylated with ^32P using recombinant GST-FER kinase was used in this assay to measure the phosphatase activity. Recombinant PTP (37 kDa) was incubated with increasing concentration (50 μM to 100 mM) of H2O2. A quick buffer exchange was done to remove the H2O2 and reducing agent (TCEP) was added to reactivate the enzyme.
# In the in vitro binding assay, purified PTP was reversibly oxidized with […] followed by a quick buffer exchange to remove H2O2 (FIG. 8). Purified scFv was incubated in molar excess with PTP1B-OX or with PTP under reducing condition (with 2 mM TCEP) in binding buffer (20 mM HEPES, pH 7.4, 300 mM NaCl, 0.05% BSA, 0.05% Tween-20 and 10 mM imidazole) for 2 hours at 4° C. Ni-NTA agarose was added and incubated for one hour at 4° C. Protein complex bound to Ni-NTA agarose beads was pulled down and washed (three times, 5 minutes each, at 4° C.) with binding buffer containing 20 mM imidazole to reduce non-specific binding to the beads. The protein complex was eluted from the Ni-NTA agarose beads with 500 mM imidazole (in binding buffer, pH 7.4) for 15 minutes at 4° C. with gentle shaking. The complex was separated by SDS-PAGE and PTP1B was detected with anti-PTP1B antibody (FG6) and scFv was detected with anti-HA antibody [anti-HA (3F10)-HRP, Roche] by immunoblotting. Eight different scFvs (scFvs 20, 21, 24, 28, 45, 48, 57, and 105), expressed and purified from bacterial cultures were tested by this in vitro binding experiment.
# [2] = tested on: phosphorylation of AKT activation loop at Threonine 308 (T308); test: AKT phosphorylation (T308) after insulin stimulation in cells overexpressing scFv45; type: cell-based; conditions: cells overexpressing scFv45, insulin stimulated for different time periods; FIG. 13
# Excerpt: Applicant assessed the role of PTP1B-OX specific intrabody on the downstream readout of insulin signaling by following the phosphorylation (activation) status of AKT.
molecule,measurement,setting,value
B1,binding to PTP1B under reducing condition in vitro,[1],not to PTP under reducing condition
same,AKT phosphorylation at residue Threonine 308 (T308),[2],enhanced and sustained AKT phosphorylation
B2,binding to PTP1B under reducing condition in vitro,[1],not to PTP under reducing condition
